Measured values from PMC9727766 (bioRxiv, 2022).

B1: sd1.040 monoclonal antibody (IgG) (antibody, V domains shown)
VH: QVQLVQSGAEVKKPGASVKVSCKASGYTFTSFYIHWVRQAPGQGLEWMGIIDPSGGSTSYPQKFQGRVTMTRDTSTSTVYMDLSSLRSEDTAVYYCTRDGSAGDNSWFDPWGQGTLVTVSS
VL: not shown
B2: fp.006 monoclonal antibody (IgG) (antibody, V domains shown)
VH: EVQLVESGGGVVQPGGSLRLSCAASGFNFNNYALHWVRQAPGKGLEWVAIISYEARNKKYGVSVMGRFSISRDNSKSIMYLEMNSLRVEDTGVYYCARDLFLSDYDRSGYDPTRGGFDHWGQGTLVTVSS
VL: EIVMTQSPATLSVSPGERATLSCRASQSVSSSLAWYQHRFGQAPRLLISGASTRATGIPGRFSGSGSGTEFTLTISSLQSEDVAVYYCQQYGDWPLVTFGGGTKVEIK
B3: fp.006 Fab (Fab, V domains shown)
VH: B2 VH
VL: B2 VL

Tests used:
[1] = biological target: T1, SARS-CoV-2 S protein, C-terminally truncated (pSARS-CoV2-S_trunc), ancestral, on 293T cells (SARS-CoV-2 ancestral (Wuhan), UniProt P0DTC2); experiment: cell-based or functional assay
[2] = biological target: T1, SARS-CoV-2 S protein, C-terminally …; experiment: flow cytometry on cells
[3] = biological target: SARS-CoV-2 fusion peptide (FP) peptide 812…831 (SARS-CoV-2 ancestral, Biotin-Ahx at the N-terminus; C-terminal amidation); experiment: crystal structure

| Binder | IC50 of neutralisation of SARS-CoV-2 pseudovirus (ancestral) [1] | fold increase of binding with soluble ACE2 [2] | binding result [3] |
| --- | --- | --- | --- |
| B1 | 0.245 µg/mL |  |  |
| B2 | 0.737 µg/mL | 5.8 fold |  |
| B3 |  |  | binds |
